Measurements: patent publication US20230203146A1 (Boehringer Ingelheim, published 2023)
Like-named read-outs stand apart in the source and are kept apart here.

Legend:
FLAG-tagged mouse Ang2 = target: T1, FLAG-tagged mouse Ang2 (mouse, UniProt O35608 19-496); assay: competition ELISA: FLAG-mAng2 binding to coated mTie2-Fc
T1 construct: N-terminally FLAG-tagged, conditioned medium of HEK293T cells; also called mAng2; FLAG-mAng2
T1 sequence: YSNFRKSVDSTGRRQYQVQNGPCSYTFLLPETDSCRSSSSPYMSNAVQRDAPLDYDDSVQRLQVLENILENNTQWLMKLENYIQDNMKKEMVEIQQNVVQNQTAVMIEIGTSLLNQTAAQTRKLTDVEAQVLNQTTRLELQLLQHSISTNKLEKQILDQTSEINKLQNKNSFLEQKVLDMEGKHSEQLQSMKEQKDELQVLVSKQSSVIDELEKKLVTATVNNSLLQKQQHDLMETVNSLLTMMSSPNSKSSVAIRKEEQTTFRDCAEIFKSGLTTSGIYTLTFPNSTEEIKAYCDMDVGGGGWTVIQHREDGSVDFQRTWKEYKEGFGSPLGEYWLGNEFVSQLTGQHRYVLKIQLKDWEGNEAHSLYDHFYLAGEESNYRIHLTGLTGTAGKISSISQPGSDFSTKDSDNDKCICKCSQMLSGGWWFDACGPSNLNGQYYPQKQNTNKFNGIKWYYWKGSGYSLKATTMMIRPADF
Method: (§1) In brief, 2 μg/mL of recombinant mouse Tie2-Fc or cyno Tie2-Fc is coated overnight at 4° C. in a 96-well MaxiSorp plate (Nunc, Wiesbaden, Germany). Coated wells are blocked with a 1% casein solution.

[1] = target: T2, FLAG-tagged cynomolgus Ang2 (cynomolgus, UniProt O15123 19-496 (human entry), limits assumed); assay: competition ELISA: FLAG-cAng2 binding to coated cTie2-Fc
T2 construct: N-terminally FLAG-tagged, conditioned medium of HEK293T cells; also called cAng2; FLAG-cAng2
T2 chain: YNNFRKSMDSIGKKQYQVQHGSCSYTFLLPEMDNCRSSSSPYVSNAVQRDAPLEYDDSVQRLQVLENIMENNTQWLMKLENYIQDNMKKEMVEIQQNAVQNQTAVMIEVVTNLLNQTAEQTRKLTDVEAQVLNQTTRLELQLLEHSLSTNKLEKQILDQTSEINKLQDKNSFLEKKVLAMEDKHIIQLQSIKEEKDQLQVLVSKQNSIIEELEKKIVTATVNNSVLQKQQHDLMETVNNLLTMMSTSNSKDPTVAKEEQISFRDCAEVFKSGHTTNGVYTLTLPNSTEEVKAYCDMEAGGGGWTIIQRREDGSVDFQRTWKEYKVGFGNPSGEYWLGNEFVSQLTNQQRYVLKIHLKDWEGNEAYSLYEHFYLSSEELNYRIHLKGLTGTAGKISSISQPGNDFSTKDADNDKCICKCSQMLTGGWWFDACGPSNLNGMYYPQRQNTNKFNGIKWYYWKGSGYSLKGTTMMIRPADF
Method: as §1

[2] = target: T3, N-terminally FLAG-tagged mouse Ang2 (HEK293T conditioned medium) (mouse, UniProt O35608 19-496); assay: competition ELISA, FLAG-mAng2 on coated mTie2-Fc
T3 construct: may be a nucleotide entry; also called mAng2; FLAG-mAng2
T3 sequence: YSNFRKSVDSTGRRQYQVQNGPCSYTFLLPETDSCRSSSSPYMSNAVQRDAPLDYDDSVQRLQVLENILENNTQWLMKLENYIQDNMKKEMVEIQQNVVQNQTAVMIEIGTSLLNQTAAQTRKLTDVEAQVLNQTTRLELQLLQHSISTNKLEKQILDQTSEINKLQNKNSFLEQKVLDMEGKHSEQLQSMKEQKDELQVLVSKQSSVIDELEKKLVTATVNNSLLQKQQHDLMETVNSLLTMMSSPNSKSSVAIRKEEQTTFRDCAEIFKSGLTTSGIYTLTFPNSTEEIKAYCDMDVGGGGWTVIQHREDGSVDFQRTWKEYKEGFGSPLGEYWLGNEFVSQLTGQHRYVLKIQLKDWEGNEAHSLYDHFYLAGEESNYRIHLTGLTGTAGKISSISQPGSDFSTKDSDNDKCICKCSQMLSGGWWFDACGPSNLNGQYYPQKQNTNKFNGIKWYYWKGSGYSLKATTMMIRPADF
Method: as §1

[3] = target: T3, N-terminally FLAG-tagged mouse Ang2 …; assay: competition ELISA, periplasmic extract, FLAG-mAng2 on mTie2/Fc
Method: In brief, human Tie2/Fc chimera (R&D Systems, Minneapolis, Minn., USA) is biotinylated using N-hydroxysulfosuccinimide ester of biotin (Thermo Fisher Scientific, Rockford, Ill., USA). […] To this mixture, the Acceptor beads and 0.3 nM biotinylated human Tie2/Fc chimeras are added and further incubated for 2 hours at room temperature. Finally, streptavidin conjugated Donor beads (Perkin Elmer, Waltham, Mass., US) are added and the mixture is incubated for an additional 2 hours at room temperature. Assay buffer is PBS+0.03% Tween-20+0.1% BSA. Fluorescence is measured using the Envision Multilabel Plate reader (Perkin Elmer, Waltham, Mass., USA) using an excitation wavelength of 680 nm and an emission wavelength of 520 nm. […] In brief, human or mouse Tie2/Fc chimera (R&D Systems, Minneapolis, Minn., USA) are immobilized at 2 μg/mL overnight at 4° C. in a 96-well MaxiSorp plate (Nunc, Wiesbaden, Germany). Wells are blocked with a 1% casein solution. […] This mixture is added to the Tie2/Fc coated well and incubated for 2 hours at room temperature. Residual binding of Ang is detected using HRP-conjugated anti-FLAG M2 antibody (Sigma, St Louis, Mo., USA).

[4] = target: T3, N-terminally FLAG-tagged mouse Ang2 …; assay: competition ELISA, FLAG-mAng2 on coated mTie2-Fc; remark: listed apart in the source
Method: as §1

[5] = target: T4, N-terminally FLAG-tagged cynomolgus Ang2 (HEK293T conditioned medium) (cynomolgus, UniProt O15123 19-496 (human entry), limits assumed); assay: competition ELISA, FLAG-cAng2 on coated cTie2-Fc
T4 construct: may be a nucleotide entry; also called cAng2; FLAG-cAng2
T4 chain: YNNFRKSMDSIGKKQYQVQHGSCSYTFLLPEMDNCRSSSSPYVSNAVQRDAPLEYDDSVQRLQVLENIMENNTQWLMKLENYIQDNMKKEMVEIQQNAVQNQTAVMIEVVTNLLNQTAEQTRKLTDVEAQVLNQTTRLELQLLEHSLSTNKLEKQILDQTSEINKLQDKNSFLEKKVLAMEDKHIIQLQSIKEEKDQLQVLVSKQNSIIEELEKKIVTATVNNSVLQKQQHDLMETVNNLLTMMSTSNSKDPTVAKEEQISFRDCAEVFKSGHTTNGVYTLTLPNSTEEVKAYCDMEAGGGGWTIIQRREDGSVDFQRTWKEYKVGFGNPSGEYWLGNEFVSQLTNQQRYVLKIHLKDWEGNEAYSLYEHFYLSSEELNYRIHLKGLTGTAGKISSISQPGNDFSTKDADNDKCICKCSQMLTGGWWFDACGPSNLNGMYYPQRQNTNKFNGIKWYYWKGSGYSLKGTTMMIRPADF
Method: as §1

[6] = target: T5, recombinant human Ang2-FLD (human, UniProt O15123 275-496, limits assumed); assay: SPR (Biacore T100), binder on CM5 chip, Ang2-FLD as analyte
T5 construct: domain: FLD; not used
T5 sequence (looked up): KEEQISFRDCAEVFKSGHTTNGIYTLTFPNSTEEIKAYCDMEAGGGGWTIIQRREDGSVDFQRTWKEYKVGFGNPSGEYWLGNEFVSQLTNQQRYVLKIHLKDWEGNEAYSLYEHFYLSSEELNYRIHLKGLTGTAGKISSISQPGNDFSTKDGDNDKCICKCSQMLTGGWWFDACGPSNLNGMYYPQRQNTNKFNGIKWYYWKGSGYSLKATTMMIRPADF
Method: (§2) In brief, VHH and benchmark compounds are immobilized on a CM5 chip via amine coupling. […] Ang2-FLD species are allowed to associate for 2 min and to dissociate for 20 min at a flow rate of 45 μL/min. In between injections, the surfaces are regenerated with a 10 sec pulse of 25 mM NaOH and 60 sec stabilization period. Association/dissociation data are evaluated by fitting a 1:1 interaction model (Langmuir binding). The affinity constant KD is calculated from resulting association and dissociation rate constants kₐ and kd and are depicted in Table 8.

[7] = target: T6, recombinant cynomolgus Ang2-FLD (cynomolgus); assay: as above
T6 construct: domain: FLD; also called cyno Ang2-FLD
Method: as §2

[8] = target: T7, recombinant mouse Ang2-FLD (mouse, UniProt O35608 275-496, limits assumed); assay: as above
T7 construct: domain: FLD
T7 sequence (looked up): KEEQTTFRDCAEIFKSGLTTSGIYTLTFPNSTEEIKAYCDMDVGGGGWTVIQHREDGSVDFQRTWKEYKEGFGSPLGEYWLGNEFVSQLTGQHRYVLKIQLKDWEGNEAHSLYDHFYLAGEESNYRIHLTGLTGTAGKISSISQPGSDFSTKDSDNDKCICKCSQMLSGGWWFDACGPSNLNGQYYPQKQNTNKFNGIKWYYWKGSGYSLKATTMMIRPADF
Method: as §2

B1: VHH 00920 (VHH, not shown: small tags and cut ends)
VHH: EVQLVESGGGLVQPGGSLRLSCAASGFALDYYAIGWFRQAPGKEREGVSCISSSGGITYYADSVKGRFTISRDNSKNTVYLQMNSLRPEDTAVYYCATDSGGYIDYDCMGLGYDYWGQGTLVTVSS
IC50 (FLAG-tagged mouse Ang2): 0.15 nM | IC50 [1]: 0.23 nM

B2: VHH 00931 (VHH, not shown: small tags and cut ends)
VHH: EVQLVESGGGLVQPGGSLRLSCAASGFALDYYAIGWFRQAPGKEREGVSCISSSGGITYYADSVKGRFTISRDNSKNTVYLQMNSLRPEDTAVYYCATESGGYIDYDCSGLGYDYWGQGTLVTVSS
IC50 (FLAG-tagged mouse Ang2): 0.15 nM | IC50 [1]: 0.29 nM

B3: VHH 00929 (VHH, not shown: small tags and cut ends)
VHH: EVQLVESGGGLVQPGGSLRLSCAASGFALDYYAIGWFRQAPGKEREGVSCISSSGGITYYADSVKGRFTISRDNSKNTVYLQMNSLRPEDTAVYYCATESGGYIDYDCQGLGYDYWGQGTLVTVSS
IC50 (FLAG-tagged mouse Ang2): 0.15 nM | IC50 [1]: 0.25 nM

B4: VHH 00927 (VHH, not shown: small tags and cut ends)
VHH: EVQLVESGGGLVQPGGSLRLSCAASGFALDYYAIGWFRQAPGKEREGVSCISSSGGITYYADSVKGRFTISRDNSKNTVYLQMNSLRPEDTAVYYCATDSGGYIDYDCRGLGYDYWGQGTLVTVSS
IC50 (FLAG-tagged mouse Ang2): 0.19 nM | IC50 [1]: 0.33 nM

B5: VHH 00926 (VHH, not shown: small tags and cut ends)
VHH: EVQLVESGGGLVQPGGSLRLSCAASGFALDYYAIGWFRQAPGKEREGVSCISSSGGITYYADSVKGRFTISRDNSKNTVYLQMNSLRPEDTAVYYCATDSGGYIDYDCQGLGYDYWGQGTLVTVSS
IC50 (FLAG-tagged mouse Ang2): 0.2 nM | IC50 [1]: 0.29 nM

B6: VHH 00930 (VHH, not shown: small tags and cut ends)
VHH: EVQLVESGGGLVQPGGSLRLSCAASGFALDYYAIGWFRQAPGKEREGVSCISSSGGITYYADSVKGRFTISRDNSKNTVYLQMNSLRPEDTAVYYCATESGGYIDYDCRGLGYDYWGQGTLVTVSS
IC50 (FLAG-tagged mouse Ang2): 0.17 nM | IC50 [1]: 0.31 nM

B7: VHH 32H10 (VHH)
VHH: EVQLVESGGGLVQAGGSLRLSCAASGFDFEDYDMGWFRQAPGKEREGVSYISSSDGSTYYTDSVKGRFTISSDNAKNTVYLQMNSLIPEDTAVYYCAARPWTRRVYGSSWLARSLDEYEYDYWGQGTQVTVSS
notes: also called 032H10; not shown: C-terminal c-myc tag and His6 tag
IC50 [2]: 13 nM | % inh [3]: 58%

B8: VHH 13A02 (VHH)
VHH: EVQLVESGGGLVQAGGSLRLSCAASGGTFSSYSMGWFRQAPGKEREFIAAINWNGDSTYYEDSVKGRFTVSRDNAKNTVYLQMNSLKPEDTAVYYCAATGWGRAYEQAYEYDVWGQGTQVTVSS
notes: also called 013A02; not shown: C-terminal c-myc tag and His6 tag
IC50 [2]: 26.6 nM | % inh [3]: 97% | IC50 [4]: 6.1 nM | IC50 [5]: 33.1 nM | Kd [6]: 9.9 nM | koff [6]: 0.091 s⁻¹ | kon [6]: 9.2e+06 M⁻¹ s⁻¹ | Kd [7]: 8.7 nM | koff [7]: 0.094 s⁻¹ | kon [7]: 1.1e+07 M⁻¹ s⁻¹ | Kd [8]: 18 nM | koff [8]: 0.034 s⁻¹ | kon [8]: 1.9e+06 M⁻¹ s⁻¹

B9: VHH 8A11 (VHH)
VHH: EVQLVESGGGLVQAGGSLRLSCAASGRTFSSYAMGWFRQAPGKELEFVTAVSWSGGSTYYADSVKGRFTISRDSAKNTVYLQMNSLKPEDTAVYYCAAQSTIVEVTTLEAYDYWGQGTQVTVSS
notes: also called 008A11; not shown: C-terminal c-myc tag and His6 tag
% inh [3]: 13% | IC50 [4]: 442 nM

B10: VHH 11B07 (VHH)
VHH: EVQLVESGGGLVQVGDSLRLSCAASGRTFSTYLMVGWFRQAPGKEREFAAGIWSSGDTAYADSVRGRFTISRDNAKNTVYLQMNSLKTEDTAVYYCAGSYDGNYYIPGFYKDWGQGTQVTVSS
notes: also called 011B07; not shown: C-terminal c-myc tag and His6 tag
IC50 [2]: 39.7 nM | IC50 [4]: 21 nM | IC50 [5]: 24.8 nM | Kd [6]: 6.7 nM | koff [6]: 0.062 s⁻¹ | kon [6]: 9.2e+06 M⁻¹ s⁻¹ | Kd [7]: 6.1 nM | koff [7]: 0.073 s⁻¹ | kon [7]: 1.2e+07 M⁻¹ s⁻¹ | Kd [8]: 29 nM | koff [8]: 0.14 s⁻¹ | kon [8]: 4.8e+06 M⁻¹ s⁻¹

B11: VHH 24B05 (VHH)
VHH: EVQLVESGGGLVQPGGSLRLSCAASGFTLDYYAIGWFRQAPGKEWEGVSCISSSDGSTYYADSVKGRFTISRDNAKNTVYLQMNSLKPEDTAVYYCATDSIVCGSYYGMDYWGKGTQVTVSS
notes: also called 024B05; not shown: C-terminal c-myc tag and His6 tag
IC50 [2]: 1.1 nM | % inh [3]: 98% | IC50 [4]: 1.5 nM | IC50 [5]: 2.1 nM | Kd [6]: 0.96 nM | koff [6]: 0.0025 s⁻¹ | kon [6]: 2.6e+06 M⁻¹ s⁻¹ | Kd [7]: 0.59 nM | koff [7]: 0.0024 s⁻¹ | kon [7]: 4.1e+06 M⁻¹ s⁻¹ | Kd [8]: 1.7 nM | koff [8]: 0.0029 s⁻¹ | kon [8]: 1.7e+06 M⁻¹ s⁻¹
